Data published in US6555328.

T1: Flag-tagged hPER1 (human Period 1, full-length open reading frame, amino acids 1 to 1289), O15534
T1 chain: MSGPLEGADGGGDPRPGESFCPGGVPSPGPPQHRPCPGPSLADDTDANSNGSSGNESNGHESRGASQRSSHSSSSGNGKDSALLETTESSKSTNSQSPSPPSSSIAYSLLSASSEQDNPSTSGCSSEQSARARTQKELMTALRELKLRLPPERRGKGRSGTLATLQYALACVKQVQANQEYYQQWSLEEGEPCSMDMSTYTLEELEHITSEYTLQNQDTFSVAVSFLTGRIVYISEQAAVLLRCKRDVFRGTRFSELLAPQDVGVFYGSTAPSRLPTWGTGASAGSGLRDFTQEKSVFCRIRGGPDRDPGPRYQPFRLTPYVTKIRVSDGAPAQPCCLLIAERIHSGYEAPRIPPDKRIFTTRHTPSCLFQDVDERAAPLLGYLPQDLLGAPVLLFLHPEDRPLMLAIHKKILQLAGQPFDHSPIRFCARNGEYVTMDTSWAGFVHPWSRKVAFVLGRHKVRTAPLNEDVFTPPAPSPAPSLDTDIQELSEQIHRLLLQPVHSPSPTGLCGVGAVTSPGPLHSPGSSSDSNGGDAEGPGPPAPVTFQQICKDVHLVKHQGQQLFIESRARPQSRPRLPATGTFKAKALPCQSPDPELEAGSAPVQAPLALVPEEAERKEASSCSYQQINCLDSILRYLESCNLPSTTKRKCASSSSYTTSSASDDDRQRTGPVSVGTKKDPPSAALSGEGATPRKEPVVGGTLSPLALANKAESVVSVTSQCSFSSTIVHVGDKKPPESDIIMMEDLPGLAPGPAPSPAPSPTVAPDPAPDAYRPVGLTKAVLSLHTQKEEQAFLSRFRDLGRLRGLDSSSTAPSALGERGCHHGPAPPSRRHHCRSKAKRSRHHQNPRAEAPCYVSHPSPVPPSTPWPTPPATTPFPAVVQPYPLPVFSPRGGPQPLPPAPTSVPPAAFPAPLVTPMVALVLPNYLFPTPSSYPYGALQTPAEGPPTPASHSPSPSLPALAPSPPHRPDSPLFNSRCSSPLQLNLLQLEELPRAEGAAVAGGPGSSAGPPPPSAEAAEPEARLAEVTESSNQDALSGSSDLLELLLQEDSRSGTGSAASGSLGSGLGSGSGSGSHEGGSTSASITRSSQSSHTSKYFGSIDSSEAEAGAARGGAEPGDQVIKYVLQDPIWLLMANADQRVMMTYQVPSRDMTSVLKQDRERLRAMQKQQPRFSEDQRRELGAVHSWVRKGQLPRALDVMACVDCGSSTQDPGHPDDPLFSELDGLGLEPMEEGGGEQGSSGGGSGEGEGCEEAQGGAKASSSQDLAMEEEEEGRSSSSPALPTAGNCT

T2: hPER2-C-terminal YGFP protein (human Period 2, full-length ORF), O15055
T2 sequence (O15055 whole entry, looked up): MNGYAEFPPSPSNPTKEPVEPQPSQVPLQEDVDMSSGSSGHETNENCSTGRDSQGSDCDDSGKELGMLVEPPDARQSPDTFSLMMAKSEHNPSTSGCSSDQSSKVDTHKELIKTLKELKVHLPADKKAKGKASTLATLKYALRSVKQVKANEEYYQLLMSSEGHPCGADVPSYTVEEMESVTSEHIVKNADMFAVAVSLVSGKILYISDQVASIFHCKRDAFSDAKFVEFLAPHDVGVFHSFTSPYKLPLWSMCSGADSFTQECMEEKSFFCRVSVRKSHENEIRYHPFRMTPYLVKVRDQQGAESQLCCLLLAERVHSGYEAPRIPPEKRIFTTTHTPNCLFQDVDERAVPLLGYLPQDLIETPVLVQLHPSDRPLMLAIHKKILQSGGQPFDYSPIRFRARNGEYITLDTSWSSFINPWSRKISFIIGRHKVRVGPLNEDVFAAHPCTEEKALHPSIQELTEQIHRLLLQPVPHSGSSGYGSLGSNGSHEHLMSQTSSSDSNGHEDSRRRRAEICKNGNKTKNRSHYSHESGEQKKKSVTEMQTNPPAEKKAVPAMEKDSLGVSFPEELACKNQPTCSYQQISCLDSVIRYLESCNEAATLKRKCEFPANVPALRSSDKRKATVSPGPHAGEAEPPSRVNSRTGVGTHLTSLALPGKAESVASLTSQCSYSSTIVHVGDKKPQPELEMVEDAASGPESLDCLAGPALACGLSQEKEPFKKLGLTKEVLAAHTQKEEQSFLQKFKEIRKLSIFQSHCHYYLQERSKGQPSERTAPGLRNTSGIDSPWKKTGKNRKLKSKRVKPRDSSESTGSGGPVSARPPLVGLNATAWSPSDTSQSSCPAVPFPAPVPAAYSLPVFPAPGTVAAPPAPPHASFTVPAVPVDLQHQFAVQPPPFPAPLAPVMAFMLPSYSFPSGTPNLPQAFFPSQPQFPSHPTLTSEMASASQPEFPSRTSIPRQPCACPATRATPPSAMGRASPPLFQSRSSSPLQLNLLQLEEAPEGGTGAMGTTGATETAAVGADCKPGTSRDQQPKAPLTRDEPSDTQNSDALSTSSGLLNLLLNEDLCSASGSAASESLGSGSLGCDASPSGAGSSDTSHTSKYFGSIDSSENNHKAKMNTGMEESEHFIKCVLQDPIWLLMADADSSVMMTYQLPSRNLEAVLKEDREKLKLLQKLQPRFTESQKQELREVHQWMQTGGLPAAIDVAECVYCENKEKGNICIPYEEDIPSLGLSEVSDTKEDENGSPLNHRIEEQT


Key:
[1] = molecular target: casein
[2] = molecular target: T1, Flag-tagged hPER1 (human Period 1, …)
[3] = molecular target: GST-IkBα
[4] = molecular target: T2, hPER2-C-terminal YGFP protein (human …)

Chain of GST-IkBα (P25963 whole entry): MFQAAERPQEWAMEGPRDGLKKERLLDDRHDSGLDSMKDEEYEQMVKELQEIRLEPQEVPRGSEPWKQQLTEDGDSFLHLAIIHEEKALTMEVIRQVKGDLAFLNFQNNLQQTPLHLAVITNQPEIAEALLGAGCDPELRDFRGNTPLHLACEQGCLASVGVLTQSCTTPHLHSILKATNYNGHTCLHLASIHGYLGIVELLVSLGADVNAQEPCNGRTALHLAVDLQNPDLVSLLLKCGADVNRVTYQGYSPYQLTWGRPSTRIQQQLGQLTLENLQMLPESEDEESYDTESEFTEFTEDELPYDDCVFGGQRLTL

Protein	in vitro kinase assay, 32P autoradiography [1]	in vitro kinase assay, 32P autoradiography [2]	in vitro kinase assay, 32P autoradiography [3]	P32 incorporation into hPER2 in cpm [4] [cpm]	Shift in hPER2 migration [4]	P32 incorporation [2]
recombinant his-tagged wild-type hCKIε, expressed in E. coli and purified (protein) MELRVGNKYRLGRKIGSGSFGDIYLGANIASGEEVAIKLECVKTKHPQLHIESKFYKMMQGGVGIPSIKWCGAEGDYNVMVMELLGPSLEDLFNFCSRKFSLKTVLLLADQMISRIEYIHSKNFIHRDVKPDNFLMGLGKKGNLVYIIDFGLAKKYRDARTHQHIPYRENKNLTGTARYASINTHLGIEQSRRDDLESLGYVLMYFNLGSLPWQGLKAATKRQKYERISEKKMSTPIEVLCKGYPSEFSTYLNFCRSLRFDDKPDYSYLRQLFRNLFHRQGFSYDYVFDWNMLKFGAARNPEDVDRERREHEREERMGQLRGSATRALPPGPPTGATANRLRSAAEPVASTPASRIQPAGNTSPRAISRVDRERKVSMRLHRGAPANVSSSDLTGRQEVSRIPASQTSVPFDHLGK	Recombinant hCKIε phosphorylates both casein and IkBα substrates	The presence of hCKIε results in phosphorylation of hPER1	Recombinant hCKIε phosphorylates both casein and IkBα substrates			
hCKIε-K38R, kinase-negative mutant of hCKIε, expressed in 293T cells (protein) MELRVGNKYRLGRKIGSGSFGDIYLGANIASGEEVAIRLECVKTKHPQLHIESKFYKMMQGGVGIPSIKWCGAEGDYNVMVMELLGPSLEDLFNFCSRKFSLKTVLLLADQMISRIEYIHSKNFIHRDVKPDNFLMGLGKKGNLVYIIDFGLAKKYRDARTHQHIPYRENKNLTGTARYASINTHLGIEQSRRDDLESLGYVLMYFNLGSLPWQGLKAATKRQKYERISEKKMSTPIEVLCKGYPSEFSTYLNFCRSLRFDDKPDYSYLRQLFRNLFHRQGFSYDYVFDWNMLKFGAARNPEDVDRERREHEREERMGQLRGSATRALPPGPPTGATANRLRSAAEPVASTPASRIQPAGNTSPRAISRVDRERKVSMRLHRGAPANVSSSDLTGRQEVSRIPASQTSVPFDHLGK				3000	-	
recombinant histidine-tagged hCKIε-K38R, expressed in bacteria and purified (protein) MELRVGNKYRLGRKIGSGSFGDIYLGANIASGEEVAIRLECVKTKHPQLHIESKFYKMMQGGVGIPSIKWCGAEGDYNVMVMELLGPSLEDLFNFCSRKFSLKTVLLLADQMISRIEYIHSKNFIHRDVKPDNFLMGLGKKGNLVYIIDFGLAKKYRDARTHQHIPYRENKNLTGTARYASINTHLGIEQSRRDDLESLGYVLMYFNLGSLPWQGLKAATKRQKYERISEKKMSTPIEVLCKGYPSEFSTYLNFCRSLRFDDKPDYSYLRQLFRNLFHRQGFSYDYVFDWNMLKFGAARNPEDVDRERREHEREERMGQLRGSATRALPPGPPTGATANRLRSAAEPVASTPASRIQPAGNTSPRAISRVDRERKVSMRLHRGAPANVSSSDLTGRQEVSRIPASQTSVPFDHLGK	does not phosphorylate either casein or GST-IkBα substrates	hCKIε-K38R has no kinase activity towards hPER1	does not phosphorylate either casein or GST-IkBα substrates			
HA-tagged hCKIε (human casein kinase I ε, wild type, expressed from pCEP4-CKIε in 293T cells) (protein) YPDYDVPDYAMELRVGNKYRLGRKIGSGSFGDIYLGANIASGEEVAIKLECVKTKHPQLHIESKFYKMMQGGVGIPSIKWCGAEGDYNVMVMELLGPSLEDLFNFCSRKFSLKTVLLLADQMISRIEYIHSKNFIHRDVKPDNFLMGLGKKGNLVYIIDFGLAKKYRDARTHQHIPYRENKNLTGTARYASINTHLGIEQSRRDDLESLGYVLMYFNLGSLPWQGLKAATKRQKYERISEKKMSTPIEVLCKGYPSEFSTYLNFCRSLRFDDKPDYSYLRQLFRNLFHRQGFSYDYVFDWNMLKFGAARNPEDVDRERREHEREERMGQLRGSATRALPPGPPTGATANRLRSAAEPVASTPASRIQPAGNTSPRAISRVDRERKVSMRLHRGAPANVSSSDLTGRQEVSRIPASQTSVPFDHLGK				5000	+	co-transfection of hPER2 or hPER1 with CKIe resulted in the incorporation of p32 into both PER proteins
